Reference: paper doi:10.1101/2021.09.02.458808

Biological target: E2-E1 heterodimer of WT Sindbis virus (strain TE12) (Sindbis virus) (UniProt P03316)
Test: cryo-EM structure

## E2-E1 heterodimer of WT Sindbis virus (strain TE12) (from UniProt P03316 807-1245) (complex)
  stoichiometry N: 3
